Data on 13 molecules can be found in patent US20200087347 (published 2020).

By IC50 is commonly meant the concentration needed to halve the response being measured.

What all share (assay): competition
For experiment [1], the target named is T1, integrin αvβ8 (human, UniProt P06756).
T1 chain 1: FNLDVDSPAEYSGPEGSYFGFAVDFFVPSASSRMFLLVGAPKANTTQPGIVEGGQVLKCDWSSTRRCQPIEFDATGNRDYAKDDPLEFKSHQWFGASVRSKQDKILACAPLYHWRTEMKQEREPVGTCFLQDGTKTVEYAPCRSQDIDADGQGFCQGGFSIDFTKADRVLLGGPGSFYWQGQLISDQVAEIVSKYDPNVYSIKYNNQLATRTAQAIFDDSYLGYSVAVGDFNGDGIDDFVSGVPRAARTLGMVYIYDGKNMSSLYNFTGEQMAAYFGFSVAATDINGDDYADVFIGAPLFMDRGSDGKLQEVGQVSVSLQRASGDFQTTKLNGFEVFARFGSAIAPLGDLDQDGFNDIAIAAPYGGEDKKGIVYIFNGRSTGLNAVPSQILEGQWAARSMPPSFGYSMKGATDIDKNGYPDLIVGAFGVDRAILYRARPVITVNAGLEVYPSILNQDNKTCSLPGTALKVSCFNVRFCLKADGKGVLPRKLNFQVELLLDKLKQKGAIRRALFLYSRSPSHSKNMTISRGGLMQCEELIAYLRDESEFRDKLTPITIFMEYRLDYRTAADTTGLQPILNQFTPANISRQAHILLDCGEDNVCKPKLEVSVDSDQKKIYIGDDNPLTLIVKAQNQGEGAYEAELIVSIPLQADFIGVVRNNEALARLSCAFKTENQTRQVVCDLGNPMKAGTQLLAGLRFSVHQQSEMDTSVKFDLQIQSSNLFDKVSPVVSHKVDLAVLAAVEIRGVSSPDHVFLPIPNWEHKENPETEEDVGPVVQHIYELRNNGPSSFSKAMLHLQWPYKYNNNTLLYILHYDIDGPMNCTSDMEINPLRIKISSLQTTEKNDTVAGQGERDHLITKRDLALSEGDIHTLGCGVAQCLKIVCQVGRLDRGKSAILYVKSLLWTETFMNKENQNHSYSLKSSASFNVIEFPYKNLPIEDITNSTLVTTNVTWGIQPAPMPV
T1 chain 2: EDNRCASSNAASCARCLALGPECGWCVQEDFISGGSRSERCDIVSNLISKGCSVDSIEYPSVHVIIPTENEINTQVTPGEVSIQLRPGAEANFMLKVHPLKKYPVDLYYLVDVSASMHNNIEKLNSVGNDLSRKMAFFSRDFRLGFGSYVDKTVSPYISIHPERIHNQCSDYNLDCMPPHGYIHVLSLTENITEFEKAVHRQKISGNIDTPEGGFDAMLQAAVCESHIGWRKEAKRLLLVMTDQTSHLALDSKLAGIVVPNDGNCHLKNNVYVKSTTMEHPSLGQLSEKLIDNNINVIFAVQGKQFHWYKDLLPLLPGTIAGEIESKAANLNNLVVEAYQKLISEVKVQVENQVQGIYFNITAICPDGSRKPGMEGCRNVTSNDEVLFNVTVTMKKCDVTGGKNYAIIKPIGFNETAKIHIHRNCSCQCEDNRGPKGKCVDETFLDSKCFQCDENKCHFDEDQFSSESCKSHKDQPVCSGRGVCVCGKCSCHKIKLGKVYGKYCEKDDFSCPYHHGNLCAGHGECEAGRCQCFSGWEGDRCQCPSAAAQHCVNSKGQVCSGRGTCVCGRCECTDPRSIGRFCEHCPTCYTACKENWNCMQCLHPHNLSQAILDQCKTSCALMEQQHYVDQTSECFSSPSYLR

In experiment [2] the target is T2, integrin αvβ6 (human, UniProt P06756).
T2 chain 1: T1 chain 1
T2 chain 2: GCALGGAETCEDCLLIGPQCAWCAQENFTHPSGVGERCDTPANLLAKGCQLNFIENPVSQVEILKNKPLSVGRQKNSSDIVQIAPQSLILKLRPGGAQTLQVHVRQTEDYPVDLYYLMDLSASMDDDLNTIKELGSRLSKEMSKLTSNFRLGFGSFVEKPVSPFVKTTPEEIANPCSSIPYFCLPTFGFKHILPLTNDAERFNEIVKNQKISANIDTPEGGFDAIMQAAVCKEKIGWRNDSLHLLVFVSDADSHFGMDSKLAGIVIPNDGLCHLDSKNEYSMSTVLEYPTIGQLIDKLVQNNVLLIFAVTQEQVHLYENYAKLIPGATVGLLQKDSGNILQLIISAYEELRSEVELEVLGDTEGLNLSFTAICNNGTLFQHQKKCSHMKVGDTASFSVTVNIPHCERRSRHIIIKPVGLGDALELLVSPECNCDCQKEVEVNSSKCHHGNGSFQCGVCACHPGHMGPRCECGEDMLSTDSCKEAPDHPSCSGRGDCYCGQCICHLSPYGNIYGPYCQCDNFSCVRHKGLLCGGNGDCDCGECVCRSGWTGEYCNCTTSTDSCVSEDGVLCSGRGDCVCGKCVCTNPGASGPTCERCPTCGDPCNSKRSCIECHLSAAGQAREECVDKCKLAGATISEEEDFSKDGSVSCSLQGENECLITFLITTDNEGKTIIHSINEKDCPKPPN

For experiment [3], the target named is T2, integrin αvβ6.
Experiment [4] concerns the target T1, integrin αvβ8.
The next experiment concerns the target T3, integrin αvβ3 (human, UniProt P06756).
T3 chain 1: T1 chain 1
T3 chain 2: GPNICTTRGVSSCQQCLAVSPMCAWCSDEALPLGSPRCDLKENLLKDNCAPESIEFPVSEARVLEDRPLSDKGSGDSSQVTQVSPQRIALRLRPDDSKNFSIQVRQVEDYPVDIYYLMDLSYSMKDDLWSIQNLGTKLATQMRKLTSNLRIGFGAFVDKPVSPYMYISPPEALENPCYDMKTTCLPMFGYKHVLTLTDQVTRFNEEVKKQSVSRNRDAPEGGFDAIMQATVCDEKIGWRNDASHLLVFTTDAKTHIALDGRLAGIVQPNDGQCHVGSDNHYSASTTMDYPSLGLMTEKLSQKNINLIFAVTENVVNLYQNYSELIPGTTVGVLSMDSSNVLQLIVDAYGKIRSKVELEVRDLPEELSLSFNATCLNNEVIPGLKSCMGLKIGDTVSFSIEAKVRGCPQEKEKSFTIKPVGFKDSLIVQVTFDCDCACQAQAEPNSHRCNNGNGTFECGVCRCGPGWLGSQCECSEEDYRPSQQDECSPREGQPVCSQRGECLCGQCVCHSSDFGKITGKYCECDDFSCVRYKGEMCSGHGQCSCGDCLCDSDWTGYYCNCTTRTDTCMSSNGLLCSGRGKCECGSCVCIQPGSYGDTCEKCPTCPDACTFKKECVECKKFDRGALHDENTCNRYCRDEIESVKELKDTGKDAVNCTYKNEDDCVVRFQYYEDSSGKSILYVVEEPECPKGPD

Where two headings read alike, the source gives them in different places. Side-chain parts run from the residue outwards. [ ]: non-standard residue; d: D form. N‑Me‑Lys‑pentyne = N-methyl-lysine carrying a pentyne (alkyne) group; Pro‑4‑NH‑hexyne = not defined here; dNMeF = CN[C@H](Cc1ccccc1)C(=O)O; NMeK = CN[C@@H](CCCCN)C(=O)O; Ahx = NCCCCCC(=O)O; BDPFL = dye

B1: Compound 5 (peptide)
chain: cyclo(RGDL[dP]PAH)
SMILES: CC(C)C[C@@H]1NC(=O)[C@H](CC(=O)O)NC(=O)CNC(=O)[C@H](CCCNC(=N)N)NC(=O)[C@H](Cc2c[nH]cn2)NC(=O)[C@H](C)NC(=O)[C@@H]2CCCN2C(=O)[C@H]2CCCN2C1=O
For B1, the results for the IC50 in the experiment with integrin αvβ8 [1] and with integrin αvβ6 [2] were 2.2 nM and 171 nM, respectively.

B2: Compound 7 (peptide)
chain: cyclo(RGDL[dP]PAL)
SMILES: CC(C)C[C@@H]1NC(=O)[C@H](C)NC(=O)[C@@H]2CCCN2C(=O)[C@H]2CCCN2C(=O)[C@H](CC(C)C)NC(=O)[C@H](CC(=O)O)NC(=O)CNC(=O)[C@H](CCCNC(=N)N)NC1=O
As for B2, the IC50 in the experiment with integrin αvβ8 [1] worked out at 1.31 nM; with integrin αvβ6 [2] it was 32 nM.

B3: Compound 9c (9-Ahx-Ahx-BDPFL) (peptide)
chain: cyclo(RGDL[dP][NMeK]([Ahx-Ahx-BDPFL])GL)
In the case of B3, the results for the IC50 with integrin αvβ6 [3], in the experiment with integrin αvβ8 [4] and with integrin αvβ3 were 64 nM, 1.52 nM and 500 nM, respectively.

B4: Compound 11 (Table 3) c(GLRVDLp(NMe)K)-Ahx-BDPFL (peptide)
chain: cyclo(GLRVDL[dP][NMeK]([Ahx-BDPFL]))
B4: the IC50 is above 10000 nM in the experiment with integrin αvβ6 [3], 1120 nM with integrin αvβ8 [4] and above 10000 nM in the experiment with integrin αvβ3.

B5: Compound 4 (peptide)
chain: cyclo(RGDL[dP]PAY)
SMILES: CC(C)C[C@@H]1NC(=O)[C@H](CC(=O)O)NC(=O)CNC(=O)[C@H](CCCNC(=N)N)NC(=O)[C@H](Cc2ccc(O)cc2)NC(=O)[C@H](C)NC(=O)[C@@H]2CCCN2C(=O)[C@H]2CCCN2C1=O
Consider B5, for which the results for the IC50 with integrin αvβ8 [1] and with integrin αvβ6 [2] were 1.1 nM and 156 nM, respectively.

B6: Compound 13 (Table 3) c(RGDfK)-Ahx-BDPFL (peptide)
chain: cyclo(RGD[dF]K)
modifications: also: Ahx-BDPFL conjugate, attachment site not given here
As for B6, the IC50 with integrin αvβ6 [3] stood at 7.8 nM; with integrin αvβ8 [4], 258 nM; in the experiment with integrin αvβ3, 2.55 nM.

B7: Compound 12 (Table 1) (peptide)
chain: cyclo(RGDL[dP][Pro‑4‑NH‑hexyne]GL)
modifications: reading uncertain
For B7, the IC50 with integrin αvβ8 [1] came out at 8.8 nM; with integrin αvβ6 [2] it was 217 nM.

B8: Compound 1 (peptide)
chain: cyclo(RGDL[dP]PAL)
SMILES: CC(C)C[C@@H]1NC(=O)[C@H](C)NC(=O)[C@@H]2CCCN2C(=O)[C@H]2CCCN2C(=O)[C@H](CC(C)C)NC(=O)[C@H](CC(=O)O)NC(=O)CNC(=O)[C@H](CCCNC(=N)N)NC1=O
For the molecule B8, the IC50 with integrin αvβ8 [1] is 1.4 nM; with integrin αvβ6 [2], 84 nM.

B9: Compound 13 (Table 1) (peptide)
chain: cyclo(RGDL[dP]PAF)
Take B9: the IC50 with integrin αvβ8 [1] worked out at 1.83 nM; with integrin αvβ6 [2], 81 nM.

B10: Compound 3 (peptide)
chain: cyclo(RGDL[dP]PSL)
SMILES: CC(C)C[C@@H]1NC(=O)[C@H](CO)NC(=O)[C@@H]2CCCN2C(=O)[C@H]2CCCN2C(=O)[C@H](CC(C)C)NC(=O)[C@H](CC(=O)O)NC(=O)CNC(=O)[C@H](CCCNC(=N)N)NC1=O
For the molecule B10, the IC50 turned out to be 12.5 nM with integrin αvβ8 [1] and 187 nM with integrin αvβ6 [2].

B11: Compound 11 (Table 1) (peptide)
chain: cyclo(RGDL[dP][N‑Me‑Lys‑pentyne]GL)
B11: the values for the IC50 in the experiment with integrin αvβ8 [1] and with integrin αvβ6 [2] were 1.7 nM and 41 nM, respectively.

B12: Compound 6 (peptide)
chain: cyclo(RGDL[dNMeF]PAL)
SMILES: CC(C)C[C@@H]1NC(=O)[C@H](C)NC(=O)[C@@H]2CCCN2C(=O)[C@@H](Cc2ccccc2)N(C)C(=O)[C@H](CC(C)C)NC(=O)[C@H](CC(=O)O)NC(=O)CNC(=O)[C@H](CCCNC(=N)N)NC1=O
With B12, the results for the IC50 in the experiment with integrin αvβ8 [1] and with integrin αvβ6 [2] were 9.4 nM and 139 nM, respectively.

B13: Compound 10 (Table 1) (peptide)
chain: cyclo(RGDL[dP]PAA)
SMILES: CC(C)C[C@@H]1NC(=O)[C@H](CC(=O)O)NC(=O)CNC(=O)[C@H](CCCNC(=N)N)NC(=O)[C@H](C)NC(=O)[C@H](C)NC(=O)[C@@H]2CCCN2C(=O)[C@H]2CCCN2C1=O
B13: the IC50 is 8.1 nM in the experiment with integrin αvβ8 [1] and 114 nM with integrin αvβ6 [2].
